Literature values in patent publication US6022890A, “Immunosuppressant tetracyclic triterpenes” (Merck & Co., Inc., priority 1998, dated 2000).

Biological target: T1, Kv 1.3 channels (CHO cells transfected with Kv 1.3 channels) (Homo sapiens, UniProt P22001)
T1 construct: expressed in transfected cells; host or cells: CHO cells
Conditions: stated for the reference blocker that defines the efflux window

T1 sequence (P22001 whole entry): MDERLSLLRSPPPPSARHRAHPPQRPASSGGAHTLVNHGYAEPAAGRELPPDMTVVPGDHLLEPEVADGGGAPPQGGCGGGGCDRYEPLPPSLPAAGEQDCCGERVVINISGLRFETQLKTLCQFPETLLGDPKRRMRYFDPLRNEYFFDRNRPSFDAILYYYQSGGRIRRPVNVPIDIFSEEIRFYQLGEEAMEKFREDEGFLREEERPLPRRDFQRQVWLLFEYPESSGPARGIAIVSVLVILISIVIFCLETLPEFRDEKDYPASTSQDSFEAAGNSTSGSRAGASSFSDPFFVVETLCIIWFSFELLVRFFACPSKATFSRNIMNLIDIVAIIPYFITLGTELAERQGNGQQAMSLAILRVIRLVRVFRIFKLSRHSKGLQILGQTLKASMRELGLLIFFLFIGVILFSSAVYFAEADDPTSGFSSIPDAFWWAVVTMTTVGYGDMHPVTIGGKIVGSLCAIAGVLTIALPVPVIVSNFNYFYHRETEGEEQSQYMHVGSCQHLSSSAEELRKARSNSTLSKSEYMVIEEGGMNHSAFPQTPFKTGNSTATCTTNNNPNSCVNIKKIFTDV

In the case of “margatoxin (TIINVKCTSPKQCLPPCKAQFGQSAGAKCMNGKCKCYPH; UniProt P40755 1-39, looked up)”, the IC50 is listed as 100 pM.
